Reference: doi:10.64898/2025.12.15.690641

T1: CsubMADS1 (Coccomyxa subellipsoidea C-169, UniProt I0YWG3 1-102)
T1 sequence: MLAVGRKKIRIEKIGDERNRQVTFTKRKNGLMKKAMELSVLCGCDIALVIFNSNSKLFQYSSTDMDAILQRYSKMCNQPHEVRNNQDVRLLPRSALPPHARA

B1: CAB8 CArG probe (dsDNA)
DNA 1: AATTCATCGATCGTTTACTTTTTTTAGAAATATCGATCGG
DNA 2: CCGATCGATATTTCTAAAAAAAGTAAACGATCGATGAATT
B2: CAB24 CArG probe (dsDNA)
DNA 1: AATTCATCGATCGTTTACAAAAAAAAGAAATATCGATCGG
DNA 2: CCGATCGATATTTCTTTTTTTTGTAAACGATCGATGAATT

Target: T1, CsubMADS1
Experiment: EMSA

Binder	binding result
B1	binds
B2	binds
